For assay [1], the target named is tagless Themis^1-563 (co-expressed with His-tagged Grb2^FL) (human, UniProt Q8N1K5). Put plainly: cryo-EM structure.
In assay [2] the target is T1, Themis^1-563 (truncated Themis, residues 1-563) (human, UniProt Q8N1K5). The assay can be described thus: cryo-EM structure.
Assay [3] deals with Themis^1-563-Grb2^FL complex (co-expressed, pre-formed) (human, UniProt Q8N1K5;P62993). Put plainly: SEC-MALS. Background: SEC sorts molecules by how far they enter the pores of the column.
Sequence of Themis^1-563-Grb2^FL complex (co-expressed, pre-formed) (P62993 whole entry, the tested form may be a part, one chain of several): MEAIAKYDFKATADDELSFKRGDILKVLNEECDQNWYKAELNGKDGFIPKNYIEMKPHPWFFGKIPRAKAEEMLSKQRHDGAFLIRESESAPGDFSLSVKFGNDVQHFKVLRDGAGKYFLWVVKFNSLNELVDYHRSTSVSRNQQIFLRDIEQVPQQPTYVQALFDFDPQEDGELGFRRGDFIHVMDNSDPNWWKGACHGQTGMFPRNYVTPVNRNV
The target in assay [4] is T1, Themis^1-563 (truncated Themis, …). Put plainly: BLI. A general note: In BLI a coated tip is dipped into the sample, and binding shifts an interference pattern.
The target of assay [5] is full-length Grb2 (Grb2^FL) (human, UniProt P62993 1-217). The assay can be described thus: SEC-MALS.
Sequence of full-length Grb2 (Grb2^FL) (P62993 whole entry): as the sequence (P62993 whole entry, the tested form may be a part, one chain of several) above

The stoichiometry N is a count of units in the complex or per binding partner.

B1: PMb256 (Pro-Macrobody of Nb256) (VHH)
VHH: QVQLQESGGGLVQAGGSLRLSCAASGRTFSTYAMGWFRQAPGKEREFVAAILWSDGSTYYADSVKGRFTISRDNAKNTVYLQMNSLKPEDTAVYYCAADYTGVRYDYWGQGTQVTVPP
For B1, the binding result in assay [1] and in assay [2] was “binds” in each case.

B2: Nb256 (Themis-specific single domain VHH camelid antibody fragment) (VHH)
VHH: B1 VHH
In the case of B2, the binding result in assay [3] and in assay [4] was “binds” each time.

B3: tagless Themis^1-563 (co-expressed with His-tagged Grb2^FL) (domain or fragment)
chain: MALSLEEFVHSLDLRTLPRVLEIQAGIYLEGSIYEMFGNECCFSTGEVIKITGLKVKKIIAEICEQIEGCESLQPFELPMNFPGLFKIVADKTPYLTMEEITRTIHIGPSRLGHPCFYHQKDIKLENLIIKQGEQIMLNSVEEIDGEIMVSCAVARNHQTHSFNLPLSQEGEFYECEDERIYTLKEIVEWKIPKNRTRTVNLTDFSNKWDSTNPFPKDFYGTLILKPVYEIQGVMKFRKDIIRILPSLDVEVKDITDSYDANWFLQLLSTEDLFEMTSKEFPIVTEVIEAPEGNHLPQSILQPGKTIVIHKKYQASRILASEIRSNFPKRHFLIPTSYKGKFKRRPREFPTAYDLEIAKSEKEPLHVVATKAFHSPHDKLSSVSVGDQFLVHQSETTEVLCEGIKKVVNVLACEKILKKSYEAALLPLYMEGGFVEVIHDKKQYPISELCKQFRLPFNVKVSVRDLSIEEDVLAATPGLQLEEDITDSYLLISDFANPTECWEIPVGRLNMTVQLVSNFSRDAEPFLVRTLVEEITEEQYYMMRRYESSASHPPPRPPKHPSV
Consider B3, for which, in assay [5], the “stoichiometry N” value is 1.
